Source: patent US20120165503A1 (Merck Sharp & Dohme, published 2012)
*1 amine or outer side, *2 acyl side, *3 side chain or, on linkers, in order; H or OH if unused. Where no end group is shown, it is not given here. Side-chain parts run from the residue outwards. [ ]: non-standard residue; d: D form. The star is where a group is joined. γGlu = O=C(O)[C@H](CCC(=O)[*:2])N[*:1]; Stearoyl = CCCCCCCCCCCCCCCCCC(=O)*; Palmitoyl = CCCCCCCCCCCCCCCC(=O)*; Myristoyl = CCCCCCCCCCCCCC(=O)*; Aib = CC(C)(N)C(=O)O

B1: OXM414 (peptide)
peptide: H[dS]QGTFTSDK([γGlu-Palmitoyl])SKYLDERRAQDFVQWLMNTK[γGlu]-NH2
modifications: N-terminus assumed
SMILES: CCCCCCCCCCCCCCCC(=O)N[C@@H](CCC(=O)NCCCC[C@H](NC(=O)[C@H](CC(=O)O)NC(=O)[C@H](CO)NC(=O)[C@@H](NC(=O)[C@H](Cc1ccccc1)NC(=O)[C@@H](NC(=O)CNC(=O)[C@H](CCC(N)=O)NC(=O)[C@@H](CO)NC(=O)[C@@H](N)Cc1c[nH]cn1)[C@@H](C)O)[C@@H](C)O)C(=O)N[C@@H](CO)C(=O)N[C@@H](CCCCN)C(=O)N[C@@H](Cc1ccc(O)cc1)C(=O)N[C@@H](CC(C)C)C(=O)N[C@@H](CC(=O)O)C(=O)N[C@@H](CCC(=O)O)C(=O)N[C@@H](CCCNC(=N)N)C(=O)N[C@@H](CCCNC(=N)N)C(=O)N[C@@H](C)C(=O)N[C@@H](CCC(N)=O)C(=O)N[C@@H](CC(=O)O)C(=O)N[C@@H](Cc1ccccc1)C(=O)N[C@H](C(=O)N[C@@H](CCC(N)=O)C(=O)N[C@@H](Cc1c[nH]c2ccccc12)C(=O)N[C@@H](CC(C)C)C(=O)N[C@@H](CCSC)C(=O)N[C@@H](CC(N)=O)C(=O)N[C@H](C(=O)N[C@@H](CCCCN)C(=O)N[C@@H](CCC(N)=O)C(=O)O)[C@@H](C)O)C(C)C)C(=O)O
B2: MM127 (peptide)
peptide: H[dS]QGTFTSDK([γGlu-γGlu-Palmitoyl])SKYLD[Aib]RAAQDFVQWLMDTK[γGlu]-NH2
modifications: N-terminus assumed
SMILES: CCCCCCCCCCCCCCCC(=O)N[C@@H](CCC(=O)N[C@@H](CCC(=O)NCCCC[C@H](NC(=O)[C@H](CC(=O)O)NC(=O)[C@H](CO)NC(=O)[C@@H](NC(=O)[C@H](Cc1ccccc1)NC(=O)[C@@H](NC(=O)CNC(=O)[C@H](CCC(N)=O)NC(=O)[C@@H](CO)NC(=O)[C@@H](N)Cc1c[nH]cn1)[C@@H](C)O)[C@@H](C)O)C(=O)N[C@@H](CO)C(=O)N[C@@H](CCCCN)C(=O)N[C@@H](Cc1ccc(O)cc1)C(=O)N[C@@H](CC(C)C)C(=O)N[C@@H](CC(=O)O)C(=O)NC(C)(C)C(=O)N[C@@H](CCCNC(=N)N)C(=O)N[C@@H](C)C(=O)N[C@@H](C)C(=O)N[C@@H](CCC(N)=O)C(=O)N[C@@H](CC(=O)O)C(=O)N[C@@H](Cc1ccccc1)C(=O)N[C@H](C(=O)N[C@@H](CCC(N)=O)C(=O)N[C@@H](Cc1c[nH]c2ccccc12)C(=O)N[C@@H](CC(C)C)C(=O)N[C@@H](CCSC)C(=O)N[C@@H](CC(=O)O)C(=O)N[C@H](C(=O)N[C@@H](CCCCN)C(=O)N[C@@H](CCC(N)=O)C(=O)O)[C@@H](C)O)C(C)C)C(=O)O)C(=O)O
B3: MM121 (peptide)
peptide: H[dS]QGTFTSDK([γGlu-γGlu-Myristoyl])SKYLD[Aib]RRAQDFVQWLMNTK[γGlu]-NH2
modifications: N-terminus assumed
SMILES: CCCCCCCCCCCCCC(=O)N[C@@H](CCC(=O)N[C@@H](CCC(=O)NCCCC[C@H](NC(=O)[C@H](CC(=O)O)NC(=O)[C@H](CO)NC(=O)[C@@H](NC(=O)[C@H](Cc1ccccc1)NC(=O)[C@@H](NC(=O)CNC(=O)[C@H](CCC(N)=O)NC(=O)[C@@H](CO)NC(=O)[C@@H](N)Cc1c[nH]cn1)[C@@H](C)O)[C@@H](C)O)C(=O)N[C@@H](CO)C(=O)N[C@@H](CCCCN)C(=O)N[C@@H](Cc1ccc(O)cc1)C(=O)N[C@@H](CC(C)C)C(=O)N[C@@H](CC(=O)O)C(=O)NC(C)(C)C(=O)N[C@@H](CCCNC(=N)N)C(=O)N[C@@H](CCCNC(=N)N)C(=O)N[C@@H](C)C(=O)N[C@@H](CCC(N)=O)C(=O)N[C@@H](CC(=O)O)C(=O)N[C@@H](Cc1ccccc1)C(=O)N[C@H](C(=O)N[C@@H](CCC(N)=O)C(=O)N[C@@H](Cc1c[nH]c2ccccc12)C(=O)N[C@@H](CC(C)C)C(=O)N[C@@H](CCSC)C(=O)N[C@@H](CC(N)=O)C(=O)N[C@H](C(=O)N[C@@H](CCCCN)C(=O)N[C@@H](CCC(N)=O)C(=O)O)[C@@H](C)O)C(C)C)C(=O)O)C(=O)O
B4: MM115 (peptide)
peptide: H[dS]QGTFTSDK([Arg-Arg-Palmitoyl])SKYLDERRAQDFVQWLMNTK[γGlu]-NH2
modifications: N-terminus assumed
SMILES: CCCCCCCCCCCCCCCC(=O)N[C@@H](CCCNC(=N)N)C(=O)N[C@@H](CCCNC(=N)N)C(=O)NCCCC[C@H](NC(=O)[C@H](CC(=O)O)NC(=O)[C@H](CO)NC(=O)[C@@H](NC(=O)[C@H](Cc1ccccc1)NC(=O)[C@@H](NC(=O)CNC(=O)[C@H](CCC(N)=O)NC(=O)[C@@H](CO)NC(=O)[C@@H](N)Cc1c[nH]cn1)[C@@H](C)O)[C@@H](C)O)C(=O)N[C@@H](CO)C(=O)N[C@@H](CCCCN)C(=O)N[C@@H](Cc1ccc(O)cc1)C(=O)N[C@@H](CC(C)C)C(=O)N[C@@H](CC(=O)O)C(=O)N[C@@H](CCC(=O)O)C(=O)N[C@@H](CCCNC(=N)N)C(=O)N[C@@H](CCCNC(=N)N)C(=O)N[C@@H](C)C(=O)N[C@@H](CCC(N)=O)C(=O)N[C@@H](CC(=O)O)C(=O)N[C@@H](Cc1ccccc1)C(=O)N[C@H](C(=O)N[C@@H](CCC(N)=O)C(=O)N[C@@H](Cc1c[nH]c2ccccc12)C(=O)N[C@@H](CC(C)C)C(=O)N[C@@H](CCSC)C(=O)N[C@@H](CC(N)=O)C(=O)N[C@H](C(=O)N[C@@H](CCCCN)C(=O)N[C@@H](CCC(N)=O)C(=O)O)[C@@H](C)O)C(C)C
B5: MM132 (peptide)
peptide: H[dS]QGTFTSDK([γGlu-γGlu-Stearoyl])SKYLD[Aib]RRAQDFVQWLMNTK[γGlu]-NH2
modifications: N-terminus assumed
SMILES: CCCCCCCCCCCCCCCCCC(=O)N[C@@H](CCC(=O)N[C@@H](CCC(=O)NCCCC[C@H](NC(=O)[C@H](CC(=O)O)NC(=O)[C@H](CO)NC(=O)[C@@H](NC(=O)[C@H](Cc1ccccc1)NC(=O)[C@@H](NC(=O)CNC(=O)[C@H](CCC(N)=O)NC(=O)[C@@H](CO)NC(=O)[C@@H](N)Cc1c[nH]cn1)[C@@H](C)O)[C@@H](C)O)C(=O)N[C@@H](CO)C(=O)N[C@@H](CCCCN)C(=O)N[C@@H](Cc1ccc(O)cc1)C(=O)N[C@@H](CC(C)C)C(=O)N[C@@H](CC(=O)O)C(=O)NC(C)(C)C(=O)N[C@@H](CCCNC(=N)N)C(=O)N[C@@H](CCCNC(=N)N)C(=O)N[C@@H](C)C(=O)N[C@@H](CCC(N)=O)C(=O)N[C@@H](CC(=O)O)C(=O)N[C@@H](Cc1ccccc1)C(=O)N[C@H](C(=O)N[C@@H](CCC(N)=O)C(=O)N[C@@H](Cc1c[nH]c2ccccc12)C(=O)N[C@@H](CC(C)C)C(=O)N[C@@H](CCSC)C(=O)N[C@@H](CC(N)=O)C(=O)N[C@H](C(=O)N[C@@H](CCCCN)C(=O)N[C@@H](CCC(N)=O)C(=O)O)[C@@H](C)O)C(C)C)C(=O)O)C(=O)O

biological target: T1, human GLP-1 receptor (human, UniProt P43220 24-463); test: cell-based or functional assay

Binder	hGLP-1R EC50
H[dS]QGTFTSDK([dE-dE-Palmitoyl])SKYLDERRAQDFVQWLMNTK[γGlu]-NH2 [MM117]	0.93 nM
B1	0.007 nM
B2	0.004 nM
B3	0.131 nM
H[dS]QGTFTSDK([homocysteic acid-homocysteic acid-Palmitoyl])SKYLDERRAQDFVQWLMNTK[γGlu]-NH2 [MM116]	0.132 nM
B4	1.08 nM
B5	0.024 nM

biological target: T2, human glucagon receptor (human, UniProt P47871 26-477); test: cell-based or functional assay
T2 sequence (P47871 26-477): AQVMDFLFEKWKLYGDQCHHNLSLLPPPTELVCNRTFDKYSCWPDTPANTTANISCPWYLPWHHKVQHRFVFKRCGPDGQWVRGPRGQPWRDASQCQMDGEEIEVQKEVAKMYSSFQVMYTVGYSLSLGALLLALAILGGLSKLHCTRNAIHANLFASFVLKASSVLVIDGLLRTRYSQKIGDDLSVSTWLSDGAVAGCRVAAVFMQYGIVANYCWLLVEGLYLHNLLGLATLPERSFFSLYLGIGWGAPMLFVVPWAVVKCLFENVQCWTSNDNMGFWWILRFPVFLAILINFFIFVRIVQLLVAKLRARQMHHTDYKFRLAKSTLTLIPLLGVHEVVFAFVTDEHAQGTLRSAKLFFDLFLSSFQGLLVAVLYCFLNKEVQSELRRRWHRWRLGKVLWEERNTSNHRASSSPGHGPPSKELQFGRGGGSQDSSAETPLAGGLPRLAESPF

Binder	hGCGR EC50
H[dS]QGTFTSDK([dE-dE-Palmitoyl])SKYLDERRAQDFVQWLMNTK[γGlu]-NH2 [MM117]	250 pM
B1	5 pM
B2	4 pM
B3	6 pM
H[dS]QGTFTSDK([homocysteic acid-homocysteic acid-Palmitoyl])SKYLDERRAQDFVQWLMNTK[γGlu]-NH2 [MM116]	850 pM
B4	1310 pM
B5	4 pM

biological target: T1, human GLP-1 receptor; test: cell-based or functional assay; remark: another data set of the same source

Binder	hGLP-1R + 20% Plasma EC50
B1	0.07 nM

biological target: T2, human glucagon receptor; test: cell-based or functional assay; remark: another data set of the same source

Binder	hGCGR + 20% plasma EC50
B1	0.15 nM
